Data set [1] concerns Saccharomyces cerevisiae. As to the kind of experiment: protein stability index of tFT-peptide fusion (C-terminal peptide) (PSI (0-1 scale)); higher = more stable (slower turnover). How it is done: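 MPS profiling in S. cerevisiae of the tFT-X12 degron library: putative degron peptides plus stable controls, 12 aa, fused to the C-terminus of a sfGFP-mCherry timer. Cells are FACS-sorted into 8 mCherry/sfGFP bins and deep-sequenced. PSI runs from 0 (unstable) to 1 (stable). Backgrounds are wild type, das1Δ and doa10Δ at 30 °C, and wild type, das1Δ, cdc34-1 and cdc53-1 at 37 °C; 2-3 technical replicates each.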

The test system of data set [2] is Saccharomyces cerevisiae. The data set is described as above. The note with it: genetic background: wild type; temperature: 30 C.
The mark [3] stands for this setting: genetic background: cdc34-1, temperature: 37 C.
The mark [4] stands for this setting: genetic background: cdc53-1, temperature: 37 C.
The mark [5] stands for this setting: genetic background: das1 deletion, temperature: 30 C.
Setting [6] is: genetic background: das1 deletion, temperature: 37 C.
Setting [7] is: genetic background: doa10 deletion, temperature: 30 C.
The mark [8] stands for this setting: genetic background: wild type, temperature: 30 C.
The mark [9] stands for this setting: genetic background: wild type, temperature: 37 C.

± gives the standard deviation of the averaged measurements.
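Further: PSI is a weighted mean of sequencing reads over stability bins, variants kept only with over 10 reads, mCherry proximal and sfGFP distal, peptide attached via GGGS linker.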

With NDVGGYFYVCSE, the protein stability index with Saccharomyces cerevisiae [1] (setting [3]) was found to be 0.682 ± 0.013; in the data set with Saccharomyces cerevisiae [1] (setting [4]), 0.749 ± 0.013; with Saccharomyces cerevisiae [1] (setting [5]), 0.641 ± 0.012; with Saccharomyces cerevisiae [1] (setting [6]) it was 0.7142 ± 0.0056; with Saccharomyces cerevisiae [1] (setting [7]), 0.63 ± 0.011; in the data set with Saccharomyces cerevisiae [1] (setting [8]), 0.648 ± 0.024. In addition, the protein stability index with Saccharomyces cerevisiae [1] (setting [9]) came to 0.735 ± 0.023; with Saccharomyces cerevisiae [2] it was 0.578 ± 0.12.

NHKTIRIQNKSI: the protein stability index is 0.67783 ± 7.8e-06 in the data set on Saccharomyces cerevisiae [1] (setting [3]); 0.775 ± 0.045 with Saccharomyces cerevisiae [1] (setting [4]); 0.64 ± 0.034 with Saccharomyces cerevisiae [1] (setting [5]); 0.699 ± 0.0092 with Saccharomyces cerevisiae [1] (setting [6]); 0.146 ± 0.0041 with Saccharomyces cerevisiae [1] (setting [7]); 0.143 ± 0.051 in the data set with Saccharomyces cerevisiae [1] (setting [8]). In addition, the protein stability index amounted to 0.424 ± 0.044 with Saccharomyces cerevisiae [1] (setting [9]) and 0.302 ± 0.031 with Saccharomyces cerevisiae [2].

For the sequence NKYSMQNVLKSF, the protein stability index was found to be 0.7 ± 0.034 with Saccharomyces cerevisiae [1] (setting [3]); 0.711 ± 0.02 in the data set with Saccharomyces cerevisiae [1] (setting [4]); 0.632 ± 0.025 in the data set with Saccharomyces cerevisiae [1] (setting [5]); 0.752 ± 0.017 with Saccharomyces cerevisiae [1] (setting [6]); 0.249 ± 0.06 in the data set on Saccharomyces cerevisiae [1] (setting [7]); 0.323 ± 0.025 in the data set with Saccharomyces cerevisiae [1] (setting [8]). Moreover, the protein stability index in the data set on Saccharomyces cerevisiae [1] (setting [9]) stood at 0.552 ± 0.049; in the data set with Saccharomyces cerevisiae [2], 0.418 ± 0.023.

As for NLDRYYKKIKLI, the protein stability index in the data set with Saccharomyces cerevisiae [1] (setting [3]) is 0.338 ± 0.025; with Saccharomyces cerevisiae [1] (setting [4]) it was 0.69 ± 0.013; in the data set with Saccharomyces cerevisiae [1] (setting [5]), 0.689 ± 0.063; with Saccharomyces cerevisiae [1] (setting [6]), 0.733 ± 0.019; in the data set on Saccharomyces cerevisiae [1] (setting [7]), 0.052 ± 0.03; with Saccharomyces cerevisiae [1] (setting [8]) it was 0.0742 ± 0.029. Also, the protein stability index in the data set with Saccharomyces cerevisiae [1] (setting [9]) is 0.0913 ± 0.021; in the data set on Saccharomyces cerevisiae [2], 0.15 ± 0.025.

Take NLSYFFFSVLFF: the protein stability index came out at 0.552 ± 0.069 in the data set on Saccharomyces cerevisiae [1] (setting [3]); 0.562 ± 0.018 in the data set on Saccharomyces cerevisiae [1] (setting [4]); 0.506 ± 0.033 in the data set with Saccharomyces cerevisiae [1] (setting [5]); 0.693 ± 0.067 with Saccharomyces cerevisiae [1] (setting [6]); 0.62 ± 0.022 in the data set on Saccharomyces cerevisiae [1] (setting [7]); 0.545 ± 0.068 in the data set with Saccharomyces cerevisiae [1] (setting [8]). The protein stability index in the data set with Saccharomyces cerevisiae [1] (setting [9]) was found to be 0.612 ± 0.038; in the data set with Saccharomyces cerevisiae [2], 0.499 ± 0.032.

With NSCHFYSRFYLA, the protein stability index came out at 0.651 ± 0.012 in the data set with Saccharomyces cerevisiae [1] (setting [3]); 0.7421 ± 0.00091 in the data set on Saccharomyces cerevisiae [1] (setting [4]); 0.657 ± 0.022 with Saccharomyces cerevisiae [1] (setting [5]); 0.70341 ± 0.00042 with Saccharomyces cerevisiae [1] (setting [6]); 0.243 ± 0.0054 in the data set with Saccharomyces cerevisiae [1] (setting [7]); 0.3 ± 0.019 in the data set on Saccharomyces cerevisiae [1] (setting [8]). Moreover, the protein stability index in the data set with Saccharomyces cerevisiae [1] (setting [9]) stood at 0.5196 ± 0.00096; in the data set on Saccharomyces cerevisiae [2] it was 0.3452 ± 0.0025.

As for NVALHPGVPRKC, the protein stability index came out at 0.656 ± 0.038 in the data set on Saccharomyces cerevisiae [1] (setting [3]); 0.715 ± 0.018 with Saccharomyces cerevisiae [1] (setting [4]); 0.677 ± 0.026 in the data set with Saccharomyces cerevisiae [1] (setting [5]); 0.75 ± 0.031 in the data set on Saccharomyces cerevisiae [1] (setting [6]); 0.664 ± 0.018 in the data set with Saccharomyces cerevisiae [1] (setting [7]); 0.649 ± 0.019 in the data set on Saccharomyces cerevisiae [1] (setting [8]). In addition, the results for the protein stability index in the data set on Saccharomyces cerevisiae [1] (setting [9]) and with Saccharomyces cerevisiae [2] were 0.702 ± 0.019 and 0.341 ± 0.036, respectively.

Take NYCLYFKLSRLS: the protein stability index in the data set with Saccharomyces cerevisiae [1] (setting [3]) was determined as 0.62 ± 0.029; in the data set with Saccharomyces cerevisiae [1] (setting [4]), 0.691 ± 0.016; in the data set with Saccharomyces cerevisiae [1] (setting [5]), 0.603 ± 0.015; with Saccharomyces cerevisiae [1] (setting [6]), 0.655 ± 0.021; with Saccharomyces cerevisiae [1] (setting [7]), 0.221 ± 0.02; in the data set on Saccharomyces cerevisiae [1] (setting [8]) it was 0.25 ± 0.017. Besides, the protein stability index in the data set on Saccharomyces cerevisiae [1] (setting [9]) is 0.429 ± 0.011; with Saccharomyces cerevisiae [2] it was 0.3897 ± 0.00059.

NYVFALFYMVVA: the protein stability index is 0.196 ± 0.022 with Saccharomyces cerevisiae [1] (setting [3]); 0.311 ± 0.031 in the data set with Saccharomyces cerevisiae [1] (setting [4]); 0.224 ± 0.033 in the data set with Saccharomyces cerevisiae [1] (setting [5]); 0.3449 ± 0.0014 with Saccharomyces cerevisiae [1] (setting [6]); 0.19 ± 0.0089 with Saccharomyces cerevisiae [1] (setting [7]); 0.217 ± 0.025 in the data set on Saccharomyces cerevisiae [1] (setting [8]). The protein stability index in the data set on Saccharomyces cerevisiae [1] (setting [9]) came out at 0.345 ± 0.03; in the data set on Saccharomyces cerevisiae [2] it was 0.254 ± 0.0054.

Regarding PALPTPPVSPSP, the protein stability index amounted to 0.613 ± 0.092 in the data set with Saccharomyces cerevisiae [1] (setting [3]); 0.667 ± 0.11 in the data set with Saccharomyces cerevisiae [1] (setting [4]); 0.256 ± 0.025 with Saccharomyces cerevisiae [1] (setting [5]); 0.465 ± 0.0057 with Saccharomyces cerevisiae [1] (setting [6]); 0.243 ± 0.014 in the data set on Saccharomyces cerevisiae [1] (setting [7]); 0.265 ± 0.022 with Saccharomyces cerevisiae [1] (setting [8]). For the same sequence, the figures for the protein stability index with Saccharomyces cerevisiae [1] (setting [9]) and in the data set with Saccharomyces cerevisiae [2] were 0.43648 ± 0.00011 and 0.333 ± 0.013, respectively.

For PCVPRLLPLQLS, the protein stability index in the data set on Saccharomyces cerevisiae [1] (setting [3]) was determined as 0.628 ± 0.019; in the data set on Saccharomyces cerevisiae [1] (setting [4]), 0.795 ± 0.028; in the data set on Saccharomyces cerevisiae [1] (setting [5]), 0.6546 ± 0.005; with Saccharomyces cerevisiae [1] (setting [6]) it was 0.758 ± 0.03; in the data set with Saccharomyces cerevisiae [1] (setting [7]), 0.216 ± 0.0089; in the data set on Saccharomyces cerevisiae [1] (setting [8]), 0.233 ± 0.0069. The protein stability index in the data set on Saccharomyces cerevisiae [1] (setting [9]) came to 0.363 ± 0.0044; with Saccharomyces cerevisiae [2], 0.252 ± 0.03.

As for PCYRPPLPALLS, the protein stability index amounted to 0.613 ± 0.013 with Saccharomyces cerevisiae [1] (setting [3]); 0.69 ± 0.0093 in the data set with Saccharomyces cerevisiae [1] (setting [4]); 0.62 ± 0.036 in the data set with Saccharomyces cerevisiae [1] (setting [5]); 0.705 ± 0.024 in the data set with Saccharomyces cerevisiae [1] (setting [6]); 0.395 ± 0.024 in the data set on Saccharomyces cerevisiae [1] (setting [7]); 0.43 ± 0.03 with Saccharomyces cerevisiae [1] (setting [8]). The results for the protein stability index in the data set with Saccharomyces cerevisiae [1] (setting [9]) and with Saccharomyces cerevisiae [2] were 0.568 ± 0.033 and 0.501 ± 0.013, respectively.

Regarding PDPIFGEWVYMV, the protein stability index worked out at 0.57943 ± 4.3e-05 in the data set with Saccharomyces cerevisiae [1] (setting [3]); 0.72148 ± 0.00041 in the data set with Saccharomyces cerevisiae [1] (setting [4]); 0.644 ± 0.0072 in the data set with Saccharomyces cerevisiae [1] (setting [5]); 0.7555 ± 0.0066 in the data set with Saccharomyces cerevisiae [1] (setting [6]); 0.249 ± 0.00039 in the data set on Saccharomyces cerevisiae [1] (setting [7]); 0.26 ± 0.02 in the data set with Saccharomyces cerevisiae [1] (setting [8]). Moreover, the protein stability index in the data set with Saccharomyces cerevisiae [1] (setting [9]) turned out to be 0.384 ± 0.0032; in the data set with Saccharomyces cerevisiae [2], 0.327 ± 0.0015.

In the case of PFAFLSLVLLLP, the protein stability index is 0.51 ± 0.017 with Saccharomyces cerevisiae [1] (setting [3]); 0.5103 ± 0.0028 in the data set on Saccharomyces cerevisiae [1] (setting [4]); 0.418 ± 0.029 in the data set with Saccharomyces cerevisiae [1] (setting [5]); 0.5176 ± 0.0043 in the data set with Saccharomyces cerevisiae [1] (setting [6]); 0.383 ± 0.027 with Saccharomyces cerevisiae [1] (setting [7]); 0.35 ± 0.023 in the data set on Saccharomyces cerevisiae [1] (setting [8]). The protein stability index was determined as 0.482 ± 0.02 with Saccharomyces cerevisiae [1] (setting [9]) and 0.418 ± 0.0045 in the data set with Saccharomyces cerevisiae [2].

As to PFFFIFVLPFVF, the protein stability index in the data set on Saccharomyces cerevisiae [1] (setting [3]) turned out to be 0.456 ± 0.045; with Saccharomyces cerevisiae [1] (setting [4]), 0.51212 ± 0.00041; in the data set with Saccharomyces cerevisiae [1] (setting [5]), 0.366 ± 0.024; in the data set with Saccharomyces cerevisiae [1] (setting [6]), 0.524 ± 0.0093; in the data set on Saccharomyces cerevisiae [1] (setting [7]) it was 0.318 ± 0.027; with Saccharomyces cerevisiae [1] (setting [8]) it was 0.309 ± 0.041. The protein stability index in the data set with Saccharomyces cerevisiae [1] (setting [9]) was determined as 0.465 ± 0.0074; in the data set on Saccharomyces cerevisiae [2] it was 0.402 ± 0.011.

Regarding PFLLLVSPISSC, the protein stability index in the data set with Saccharomyces cerevisiae [1] (setting [3]) amounted to 0.416 ± 0.037; with Saccharomyces cerevisiae [1] (setting [4]), 0.403 ± 0.01; in the data set on Saccharomyces cerevisiae [1] (setting [5]) it was 0.301 ± 0.028; with Saccharomyces cerevisiae [1] (setting [6]) it was 0.4637 ± 0.0012; in the data set with Saccharomyces cerevisiae [1] (setting [7]), 0.271 ± 0.0057; with Saccharomyces cerevisiae [1] (setting [8]), 0.302 ± 0.028. Moreover, the protein stability index turned out to be 0.445 ± 0.014 with Saccharomyces cerevisiae [1] (setting [9]) and 0.433 ± 0.011 in the data set on Saccharomyces cerevisiae [2].

Take PGFCFFLYYCMM: the protein stability index amounted to 0.4815 ± 0.0025 in the data set with Saccharomyces cerevisiae [1] (setting [3]); 0.558 ± 0.056 in the data set with Saccharomyces cerevisiae [1] (setting [4]); 0.416 ± 0.031 in the data set on Saccharomyces cerevisiae [1] (setting [5]); 0.562 ± 0.011 in the data set on Saccharomyces cerevisiae [1] (setting [6]); 0.368 ± 0.0053 in the data set with Saccharomyces cerevisiae [1] (setting [7]); 0.412 ± 0.018 with Saccharomyces cerevisiae [1] (setting [8]). Moreover, the protein stability index in the data set on Saccharomyces cerevisiae [1] (setting [9]) was found to be 0.5331 ± 0.00095; with Saccharomyces cerevisiae [2], 0.49 ± 0.034.

The values are drawn from the supplement of paper PMC10724198.
